From patent US20140341937A1 (US Dept. of Health and Human Services, published 2014)

B1: TARC-PE38 (ligand)
chain: MARGTNVGRECCLEYFKGAIPLRKLKTWYQTSEDCSRDAIVFVTVQGRAICSDPNNKRVKNAVKYLQSLERSDGGGSGGGGSLEASGGPEGGSLAALTAHQACHLPLETFTRHRQPRGWEQLEQCGYPVQRLVALYLAARLSWNQVDQVIRNALASPGSGGDLGEAIREQPEQARLALTLAAAESERFVRQGTGNDEAGAANGPADSGDALLERNYPTGAEFLGDGGDVSFSTRGTQNWTVERLLQAHRQLEERGYVFVGYHGTFLEAAQSIVFGGVRARSQDLDAIWRGFYIAGDPALAYGYAQDQEPDARGRIRNGALLRVYVPRSSLPGFYRTSLTLAAPEAAGEVERLIGHPLPLRLDAITGPEEEGGRLETILGWPLAERTVVIPSAIPTDPRNVGGDLDPSSIPDKEQAISALPDYASQPGKPPREDLKRSAEEQKLISEEDLAHHHHHH
B2: MC148-EDN (ligand)
chain: MALARRKCCLNPTNRPIPNPLLQDLSRVDYQAIGHDCGREAFRVTLQDGRQGCVSVGNKSLLDWLRGHKDLCPQIWSGCESLEFNDAQAPKSLEGGGGSKPPQFTWAQWFETQHINMTSQQCTNAMQVINNYQRRCKNQNTFLLTTFANVVNVCGNPNMTCPSNKTRKNCHHSGSQVPLIHCNLTTPSPQNISNCRYAQTPANMFYIVACDNRDQRRDPPQYPVVPVHLDRIIGSAEEQKLISEEDLAHHHHHH
notes: also called MC148-chemotoxin

Tests used:
CCR4 = target: T1, CCR4 (human, UniProt P51679 1-360); experiment: cell-based or functional assay
T1 sequence (looked up): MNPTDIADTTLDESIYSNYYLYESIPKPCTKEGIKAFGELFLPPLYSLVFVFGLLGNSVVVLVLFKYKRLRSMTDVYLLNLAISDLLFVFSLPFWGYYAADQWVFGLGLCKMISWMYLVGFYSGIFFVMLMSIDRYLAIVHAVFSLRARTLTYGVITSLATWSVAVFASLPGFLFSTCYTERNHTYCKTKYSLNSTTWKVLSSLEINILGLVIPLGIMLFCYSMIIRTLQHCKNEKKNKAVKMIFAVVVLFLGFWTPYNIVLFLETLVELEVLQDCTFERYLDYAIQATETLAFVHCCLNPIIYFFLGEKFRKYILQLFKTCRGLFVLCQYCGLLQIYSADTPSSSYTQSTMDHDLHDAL

CCR8 = target: T2, CCR8 (human, UniProt P51685 1-355); experiment: flow cytometry on HEK293/CCR8 cells, 30 min at 4° C., anti-EDN antibody detection
T2 construct: whole, on cells; also called human CCR8; HEK/CCR8
T2 sequence (P51685 whole entry): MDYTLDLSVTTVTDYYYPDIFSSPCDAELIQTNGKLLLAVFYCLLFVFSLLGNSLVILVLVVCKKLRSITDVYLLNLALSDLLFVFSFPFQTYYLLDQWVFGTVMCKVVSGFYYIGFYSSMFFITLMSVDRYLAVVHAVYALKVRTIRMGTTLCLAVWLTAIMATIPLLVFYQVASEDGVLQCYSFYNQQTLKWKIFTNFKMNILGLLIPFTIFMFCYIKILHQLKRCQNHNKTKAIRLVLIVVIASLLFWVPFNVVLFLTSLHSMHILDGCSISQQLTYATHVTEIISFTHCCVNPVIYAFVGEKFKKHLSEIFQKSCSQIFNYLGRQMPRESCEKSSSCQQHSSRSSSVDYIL

Row | Binder | killing of human T lymphoblastoid CCRF-CEM cells in vitro (IC50) (CCR4) [nM] | binding result (CCR8)
1 | B1 | 3 to 8 | –
2 | B2 | – | binds
